Sequences and labels used below:
B1: Pol30p (PCNA), wild type, two-hybrid prey (pBL240-PCNA-Gal4AD) [S. cerevisiae] / Rrm3p, two-hybrid bait [S. cerevisiae] (parent)
chain 1: MLEAKFEEASLFKRIIDGFKDCVQLVNFQCKEDGIIAQAVDDSRVLLVSLEIGVEAFQEYRCDHPVTLGMDLTSLSKILRCGNNTDTLTLIADNTPDSIILLFEDTKKDRIAEYSLKLMDIDADFLKIEELQYDSTLSLPSSEFSKIVRDLSQLSDSINIMITKETIKFVADGDIGSGSVIIKPFVDMEHPETSIKLEMDQPVDLTFGAKYLLDIIKGSSLSDRVGIRLSSEAPALFQFDLKSGFLQFFLAPKFNDEE
chain 2: MFRSHASGNKKQWSKRSSNGSTPAASASGSHAYRQQTLSSFFMGCGKKSAAASKNSTTIIDLESGDEGNRNITAPPRPRLIRNNSSSLFSQSQGSFGDDDPDAEFKKLVDVPRLNSYKKSSRSLSMTSSLHKTASASTTQKTYHFDEDETLREVTSVKSNSRQLSFTSTINIEDSSMKLSTDSERPAKRSKPSMEFQGLKLTVPKKIKPLLRKTVSNMDSMNHRSASSPVVLTMEQERVVNLIVKKRTNVFYTGSAGTGKSVILQTIIRQLSSLYGKESIAITASTGLAAVTIGGSTLHKWSGIGIGNKTIDQLVKKIQSQKDLLAAWRYTKVLIIDEISMVDGNLLDKLEQIARRIRKNDDPFGGIQLVLTGDFFQLPPVAKKDEHNVVKFCFESEMWKRCIQKTILLTKVFRQQDNKLIDILNAIRYGELTVDIAKTIRNLNRDIDYADGIAPTELYATRREVELSNVKKLQSLPGDLYEFKAVDNAPERYQAILDSSLMVEKVVALKEDAQVMMLKNKPDVELVNGSLGKVLFFVTESLVVKMKEIYKIVDDEVVMDMRLVSRVIGNPLLKESKEFRQDLNARPLARLERLKILINYAVKISPHKEKFPYVRWTVGKNKYIHELMVPERFPIDIPRENVGLERTQIPLMLCWALSIHKAQGQTIQRLKVDLRRIFEAGQVYVALSRAVTMDTLQVLNFDPGKIRTNERVKDFYKRLETLK

Variants of B1 are the subject of one assay. Nature of the assay: yeast two-hybrid (β-galactosidase). The settings on record: with Rrm3p, prey Pol30-6p, parent: 1.3, read off a plot.
For the variant chain 1 MLEAKFEEASLFKRIIDGFKDCVQLVNFQCKEDGIIAQAVAASRVLLVSLEIGVEAFQEYRCDHPVTLGMDLTSLSKILRCGNNTDTLTLIADNTPDSIILLFEDTKKDRIAEYSLKLMDIDADFLKIEELQYDSTLSLPSSEFSKIVRDLSQLSDSINIMITKETIKFVADGDIGSGSVIIKPFVDMEHPETSIKLEMDQPVDLTFGAKYLLDIIKGSSLSDRVGIRLSSEAPALFQFDLKSGFLQFFLAPKFNDEE [chain 1 D41A D42A], the response (U/mg of protein) is 0.58.

The same assay, now with this note: with Rrm3p, prey Pol30-8p, parent: 1.3, read off a plot.
Take chain 1 MLEAKFEEASLFKRIIDGFKDCVQLVNFQCKEDGIIAQAVDDSRVLLVSLEIGVEAFQEYACAHPVTLGMDLTSLSKILRCGNNTDTLTLIADNTPDSIILLFEDTKKDRIAEYSLKLMDIDADFLKIEELQYDSTLSLPSSEFSKIVRDLSQLSDSINIMITKETIKFVADGDIGSGSVIIKPFVDMEHPETSIKLEMDQPVDLTFGAKYLLDIIKGSSLSDRVGIRLSSEAPALFQFDLKSGFLQFFLAPKFNDEE [chain 1 R61A D63A]: the response (U/mg of protein) worked out at 0.75.

The same assay, now with this note: with Rrm3p, prey Pol30-79p, parent: 1.3, read off a plot.
On to chain 1 L126A I128A, for which the response (U/mg of protein) came out at 1.3.

These data come from publication PMC10585736.
